Laboratory results from patent publication US20150353933, “APTAMER AGAINST MIDKINE AND APPLICATIONS THEREOF” (RIBOMIC INC., published 2015).
Numbering of substitutions follows the chain as printed.

T1: midkine (AP-MK) (Homo sapiens, UniProt P21741 P21741:23-143)
T1 chain: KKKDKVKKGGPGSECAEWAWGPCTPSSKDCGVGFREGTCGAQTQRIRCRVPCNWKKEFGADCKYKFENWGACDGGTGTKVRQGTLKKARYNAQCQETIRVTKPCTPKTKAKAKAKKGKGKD

T2: midkine (MK) (Homo sapiens, UniProt P21741 P21741:21-143)
T2 sequence: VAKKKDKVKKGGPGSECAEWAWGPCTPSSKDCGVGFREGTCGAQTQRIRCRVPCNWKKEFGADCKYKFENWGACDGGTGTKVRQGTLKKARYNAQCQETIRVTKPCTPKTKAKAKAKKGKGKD

B1: SEQ ID NO: 7-9 (ssRNA)
RNA: GCCAUCGCAAUGGUGAGUGGUUUAUCCGCCUGCGCAUGGC
modifications: 3' idT; 2'-OMe at 1-13,16,17,19,20,23,28,30-40; 2'-F at U14,U18,U21,U22,U25,C26,C27,C29; 2'-OH at G15,A24
B2: SEQ ID NO: 11 (ssRNA)
RNA: GCGCAAUGGUGAGUGGUUUAUCCGCCUGCGC
modifications: 3' idT; 2'-OMe at 1-10,12,15,16,19,24,26-31; 2'-F at U14,U17,U18,U21,C22,C23,C25; 2'-OH at G11,G13,A20
B3: SEQ ID NO: 11-1 (ssRNA)
RNA: B2 RNA
modifications: 3' idT; 2'-OMe at 1-10,12,15,16,19,23-31; 2'-F at U14,U17,U18,U21,C22; 2'-OH at G11,G13,A20
B4: SEQ ID NO: 2 (ssRNA)
RNA: GGGACACAAUGGACGUCUGUGUGGUUUAUCCGGAUGUCCGUCGUCCUCUGUCAUGUAACGGCCGACAUGAGAG
modifications: 2'-F pyrimidines; 16-nt poly A at 3' end for SPR
B5: SEQ ID NO: 6 (ssRNA)
RNA: B4 RNA with U35C, A53G
modifications: 2'-F pyrimidines; 16-nt poly A at 3' end for SPR
B6: SEQ ID NO: 4 (ssRNA)
RNA: B4 RNA with U51C
modifications: 2'-F pyrimidines; 16-nt poly A at 3' end for SPR
B7: SEQ ID NO: 5 (ssRNA)
RNA: B4 RNA with U49G
modifications: 2'-F pyrimidines; 16-nt poly A at 3' end for SPR
B8: SEQ ID NO: 3 (ssRNA)
RNA: B4 RNA with A53G
modifications: 2'-F pyrimidines; 16-nt poly A at 3' end for SPR
B9: SEQ ID NO: 8-1 (ssRNA)
RNA: GUCUGUGUGGUUUAUCCGGAC
modifications: 2'-OMe at G1,G9,G10,U13,G18,G19,A20; 2'-F at all other pyrimidines; 2'-OH at G5,G7,A14
B10: SEQ ID NO: 8-4 (ssRNA)
RNA: GUCUGUGUGGUUUAUCCGGAC
modifications: 5' 80PEG4ts; 3' idT; 2'-OMe at 1-3,8-10,13,18-21; 2'-F at U4,U6,U11,U12,U15,C16,C17; 2'-OH at G5,G7,A14
B11: SEQ ID NO: 8-2 (ssRNA)
RNA: GUCUGUGUGGUUUAUCCGGAC
modifications: 5' 80PEG4ts; 3' idT; 2'-OMe at G1,G9,G10,U13,G18,G19,A20; 2'-F at other pyrimidines except C21 (unmodified as printed); 2'-OH at G5,G7,A14
B12: SEQ ID NO: 8-3 (ssRNA)
RNA: GUCUGUGUGGUUUAUCCGGAC
modifications: 5' 80PEG4gs; 3' idT; 2'-OMe at G1,G9,G10,U13,G18,G19,A20; 2'-F at other pyrimidines except C21 (unmodified as printed); 2'-OH at G5,G7,A14
B13: SEQ ID NO: 8-5 (ssRNA)
RNA: GUCUGUGUGGUUUAUCCGGAC
modifications: 5' 80PEG4gs; 3' idT; 2'-OMe at 1-3,8-10,13,18-21; 2'-F at U4,U6,U11,U12,U15,C16,C17; 2'-OH at G5,G7,A14
B14: SEQ ID NO: 1 (ssRNA)
RNA: GGGAGAGGAGAAGAGGAAGCUAUCGCAAUGGUGAGUGGUUUAUCCGCCUGCGCAUGGUUAGAGGACAGGAAUGAGGA
modifications: 2'-F pyrimidines; 16-nt poly A at 3' end for SPR
B15: SEQ ID NO: 8 (ssRNA)
RNA: GUCUGUGUGGUUUAUCCGGAC
modifications: 2'-F pyrimidines
B16: SEQ ID NO: 7 (ssRNA)
RNA: B1 RNA
modifications: 2'-F pyrimidines

Biological target: T1, midkine (AP-MK)
Assay: inhibition; AP-MK binding to HepG2 cells
Settings: tags: alkaline phosphatase fusion, APtag-5 vector (GenHunter), 293T culture supernatant
Description: (§1) Using the above-mentioned AP-MK, a binding inhibitory experiment relative to TNB1 cell, which is a human neuroblastoma cell, was performed. TNB1 cells were seeded at 1×10⁵ cells/well on a 6-well plate coated with collagen I. The next day, the cells were washed with 1 mL of HBHA (HBSS+0.5 mg/mL BSA+20 mM HEPES pH 7.0), 1 U/mL AP or AP-MK, and further, the aptamer shown in SEQ ID NO: 7-1 at a final concentration of 100 nM were added and the mixture was maintained at room temperature for 90 min. After washing 5 times with 1 mL of HBHA, 200 μL of Cell Lysis Buffer (manufactured by GenHunter) was added and the mixture was stirred for 5 min. The cells were scraped with a Scraper and placed in an Eppendorf tube, vortexed for 10 sec and centrifuged at 15000 rpm for 2 min. The supernatant was recovered, and heated at 65° C. for 10 min to inactivate endogenous AP. Using 50 μL, color development was performed in the same manner as above (15 min) and the activity of AP was calculated.
An altered form of SEQ ID NO: 7-1 was produced, and AP-MK binding inhibitory experiment was performed using HepG2 and TNB1 cells and in the same manner as above. The sequences of the altered forms actually produced are shown below. While Poly dA for BIAcore measurement is added to the 3′-terminus of the aptamers shown in SEQ ID NO: 9 and SEQ ID NO: 9-1-5, an influence on the activity is not expected. The 50% inhibitory concentration (IC₅₀) was determined from the concentrations at two, above and below points sandwiching the 50% inhibitory activity (Table 2).

Binder | IC50
B1 | 4.7 nM
B2 | 6.3 nM
B3 | 7.8 nM

Biological target: T2, midkine (MK)
Assay: SPR; strongly binds; 0.5 uM MK analyte; solution A
Settings: tags: produced in yeast
Description: (§2) The binding activities of the oligonucleotides shown by SEQ ID NO:1 to 6 obtained in Examples 1 and 2 for MK were evaluated by a surface plasmon resonance method. The measurements were performed using BIAcore2000, manufactured by BIAcore. The sensor chip used was the SA chip, which had streptavidin immobilized thereon. Bound thereto was about 1000 RU of a 16-nucleotide Poly dT with biotin bound to the 5′ end thereof. […] 70 μL of MK for analyte, prepared at 0.5 μM, was injected.

Binder | binding result
B4 | binds
B5 | binds
B6 | binds
B7 | binds
B8 | binds

Biological target: T1, midkine (AP-MK)
Assay: inhibition; AP-MK binding to HepG2, 500 nM aptamer
Settings: tags: alkaline phosphatase fusion, APtag-5 vector (GenHunter), 293T culture supernatant
Description: as §1
An experiment similar to the above was performed using HepG2 cells which are human liver cancer-derived cells. It is already known that MK is deeply involved in the growth and inhibition of apoptosis of HepG2 cells (Ohuchida et al., Cancer 100, 2430-2436, 2004; Dai et al., World J. Gastroenterol. 15, 1966-1972, 2009). When the aptamer was added to the system, the binding of AP-MK and HepG2 was inhibited (Table 1).

Binder | activity
B9 | 76 % inhibition
B10 | 58 % inhibition
B11 | 61 % inhibition
B12 | 65 % inhibition
B13 | 61 % inhibition

Biological target: T2, midkine (MK)
Assay: SPR; strongly binds; 0.5 uM MK analyte; solution A (Na, K, Ca, Mg, Tris pH 7.6)
Settings: tags: produced in yeast
Description: as §2

Binder | binding result
B14 | binds

Biological target: T2, midkine (MK)
Assay: SPR; confirmed MK binding, as in Example 3
Settings: tags: produced in yeast
Description: as §2
Those aptamers were evaluated by the surface plasmon resonance method in the same manner as in Example 3, and they were confirmed to have MK binding activity.

Binder | binding result
B9 | binds
B10 | binds
B11 | binds
B15 | binds
B16 | binds
B12 | binds
B13 | binds
